Laboratory results published in patent publication US20130266576A1 (Novo Nordisk, published 2013).

T1: B-domain deleted factor VIII (FVIII) (human, UniProt P00451 20-759; P00451 1668-2351)
T1 sequence 1: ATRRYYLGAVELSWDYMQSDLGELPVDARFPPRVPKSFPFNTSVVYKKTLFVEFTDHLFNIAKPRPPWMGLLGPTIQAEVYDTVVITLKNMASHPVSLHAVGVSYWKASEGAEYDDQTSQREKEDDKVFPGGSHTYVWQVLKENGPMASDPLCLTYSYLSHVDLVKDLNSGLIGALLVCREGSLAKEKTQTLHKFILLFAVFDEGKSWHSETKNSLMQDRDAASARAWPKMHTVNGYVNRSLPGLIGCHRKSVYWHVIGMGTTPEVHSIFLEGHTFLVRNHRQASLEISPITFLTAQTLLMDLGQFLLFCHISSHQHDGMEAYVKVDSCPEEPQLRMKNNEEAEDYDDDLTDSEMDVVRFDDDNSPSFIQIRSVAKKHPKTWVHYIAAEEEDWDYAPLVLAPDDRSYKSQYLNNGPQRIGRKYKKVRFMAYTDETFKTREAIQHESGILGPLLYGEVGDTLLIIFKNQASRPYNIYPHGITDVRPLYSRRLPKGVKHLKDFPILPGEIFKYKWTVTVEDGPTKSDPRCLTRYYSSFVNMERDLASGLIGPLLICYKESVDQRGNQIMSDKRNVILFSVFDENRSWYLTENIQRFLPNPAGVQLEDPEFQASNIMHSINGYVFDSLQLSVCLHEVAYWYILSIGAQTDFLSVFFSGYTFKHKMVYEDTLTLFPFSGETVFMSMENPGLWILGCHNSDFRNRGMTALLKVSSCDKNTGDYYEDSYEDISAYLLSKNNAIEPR
T1 sequence 2: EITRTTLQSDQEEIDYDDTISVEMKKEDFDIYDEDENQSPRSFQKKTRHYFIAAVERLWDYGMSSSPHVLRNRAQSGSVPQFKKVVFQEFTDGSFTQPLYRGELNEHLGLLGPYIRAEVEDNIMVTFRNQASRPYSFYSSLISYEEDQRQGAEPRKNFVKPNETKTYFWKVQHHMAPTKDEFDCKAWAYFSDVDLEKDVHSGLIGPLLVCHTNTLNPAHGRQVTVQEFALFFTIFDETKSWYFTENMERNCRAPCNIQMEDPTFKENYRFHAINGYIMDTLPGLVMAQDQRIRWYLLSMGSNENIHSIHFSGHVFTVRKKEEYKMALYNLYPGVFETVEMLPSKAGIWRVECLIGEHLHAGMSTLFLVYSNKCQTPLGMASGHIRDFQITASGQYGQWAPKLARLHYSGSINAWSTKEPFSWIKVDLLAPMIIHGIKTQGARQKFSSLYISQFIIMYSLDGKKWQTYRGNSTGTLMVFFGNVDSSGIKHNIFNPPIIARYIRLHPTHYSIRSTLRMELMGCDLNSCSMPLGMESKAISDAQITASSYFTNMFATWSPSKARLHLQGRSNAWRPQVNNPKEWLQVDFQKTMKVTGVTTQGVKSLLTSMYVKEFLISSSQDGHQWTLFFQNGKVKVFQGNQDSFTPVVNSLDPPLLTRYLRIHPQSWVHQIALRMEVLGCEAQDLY


Columns and labels:
[1] = target: T1, B-domain deleted factor VIII (FVIII); experiment: cell-based or functional assay
[2] = target: T1, B-domain deleted factor VIII (FVIII); experiment: SPR (Biacore 3000), antibody captured by rabbit anti-mouse IgG, FVIII as analyte; Kd = koff/kon
Description: (§1) The kinetics of FVIII binding to antibody was determined by surface plasmon resonance using a Biacore 3000 instrument. Each antibody was captured to a level of 70-110 RU in flow cell 2 of a CM5 chip coated with rabbit anti-mouse IgG antibody (GE Healthcare, Uppsala, Sweden) as described by the manufacturer. Kinetic analysis was performed at 25° C. at a flow rate of 30 μl/min in running buffer using flow cell 1 as reference. Serial two-fold dilutions of FVIII from 0 to 40 nM were analyzed. Following 3-min equilibration of the flow cells in running buffer, 150 μl FVIII were injected. The dissociation phase lasted 9 min and regeneration was performed with a 3-min pulse of 10 mM glycine, pH 1.7. The obtained reference-subtracted sensorgrams fitted well to a 1:1 Langmuir binding model which allowed for estimation of association (Kₒₙ) and dissociation (koff) rate constants and the equilibrium dissociation constant (Kd=koff/kₒₙ) using BIAevaluation 4.1 software (GE Healthcare, Uppsala, Sweden).
TABLE 2 Surface plasmon resonance analysis of the kinetics of FVIII binding to select antibodies. The listed antibodies were captured by immobilized rabbit anti-mouse IgG antibody and binding to FVIII were tested in concentrations ranging from 0 to 40 nM. […] The dissociation constrant Kd was calculated as koff/kₒₙ. […]

[3] = target: T1, B-domain deleted factor VIII (FVIII); experiment: SPR (Biacore 3000), antibody captured by rabbit anti-mouse IgG, FVIII 0-40 nM as analyte, 25 C, 1:1 Langmuir fit
Description: as §1
TABLE 2 Surface plasmon resonance analysis of the kinetics of FVIII binding to select antibodies. The listed antibodies were captured by immobilized rabbit anti-mouse IgG antibody and binding to FVIII were tested in concentrations ranging from 0 to 40 nM. Binding curves fitted well to a 1:1 Langmuir binding isotherm which provided estimates of association (kₒₙ) and dissociation (koff) rate constants. The dissociation constrant Kd was calculated as koff/kₒₙ. Standard errors obtained from the fits are shown.

Maximal level of thrombin generation, fold-increase compared to FVIII [1] [fold] | Rate of thrombin generation, fold-increase compared to FVIII [1] [fold] | Kd [2] [nM] | koff [3] [s⁻¹] | kon [3] [M⁻¹ s⁻¹] | Binder
1.7 | 1.8 | 3.5 | 0.000849 | 244000 | anti-FVIII 4F143 (antibody, mouse IgG1, V domains shown, Mouse monoclonal from hybridoma, murine IgG1 heavy chain and kappa light chain; also called Anti-FVIIIa 4F143) VH: QIQFVQSGPELKKPGETVKISCKASGYTFTNYGMNWVKQAPGKGLKWMGWINSYTGEPTYADDFKGRFAFSLETSASTAYLQINNLKNEDTATYFCARGASYAMDYWGQGTSVTVSS VL: DVQITQSPSYLAASPGETITINCRASKSISKYLAWYQEKPVKTNKLLIYSGSTLQSGIPSRFSGSGSGTDFTLTISSLEPEDFAMYYCQQHYEYPLTFGAGTKLELKR
 |  | 5.6 | 0.00106 | 190000 | anti-FVIII 4F50 (antibody, mouse IgG1, V domains shown, Mouse monoclonal, murine IgG1 heavy chain and kappa light chain; also called Anti-FVIIIa 4F50) VH: QIQFVQSGPELKKPGETVKISCKASGYTFTNYGMNWVKQAPGKGLKWMGWINSYTGEPTYADDFKGRFDFSLETSASTAYLQINNLKNEDTATYFCARGASYAMDHWGQGTSVTVSS VL: DVQITQSPSYLAASPGETISINCRASKSISKYLAWYQEKPVKTNKLLIYSGSTLQSGIPSRFSGSGSGTDFTLTISSLEPEDFAMYYCQQHYEYPLTFGAGTKLELKR
